Results from patent US7439329B2, “GEF-H1b: biomarkers, complexes assays and therapeutic uses thereof” (Sugen, Inc., priority 2002, dated 2008).

How the values were obtained:
[1] = target: T1, PAK4 (Homo sapiens, UniProt O96013); test: In vitro kinase assay, phosphorylation of substrates by PAK4; assay type: biochemical; conditions: autoradiography
T1 construct: Glutathione-s-transferase (GST) fused PAK4 (residues 291-591); GST (N); made in house
Experimental: Next examined, was whether GEF-H1 is a PAK4 substrate. In vitro kinase assays were performed using a GEF-H1 GST-fusion protein, a Maguin-2-like GST-fusion protein and GST control protein as substrates for phosphorylation by PAK4.
The cDNA encoding GEF-H1S obtained in the phage display screen was excised and subcloned into pGEX-4T expression vector to allow for recombinant production of protein for in vitro experiments. The GEF-H1S protein was then mixed with PAK4 kinase and incubated such that PAK4 phosphorylated the GEF-H1S. A portion of this kinase reaction was separated by SDS-PAGE and autoradiographed to visualize the extent of phosphorylation. […] SDS-PAGE is a universal protein separation and visualization technique that is described in Laemmli, Nature, 227(259):680-5, 1970.
From the phosphorylation experiments described above, two peptides of GEF-H1S were identified as being targets for PAK4-induced phosphorylation. The GEF-H1S target residues were identified by aligning the PAK4 activation loop peptide with the GEF-H1S polypeptide sequence amino acids 762 to 921.
The following phosphoisomers (phosphate-modified GEF-H1S peptides) were used in PAK4 kinase assays to determine which residues were specifically phosphorylated. Because certain residues were modified to comprise a phosphate moiety (the underlined residues below), they could not be phosphorylated by PAK4.
Glutathione-s-transferase (GST) fused PAK4 (residues 291-591), GEF-H1 amino acids 763-921 (from phage clone 13.8 sequence, matches KIAA0651) and Maguin 2-like (from phage clone 13.32, sequence matches accession # XP-087831) were purified by standard procedures and as previously described 31. Amino acid sequence of peptides spanning GEF-H1b 807-824 #1008 (RRRSLPAGDALYLpSFNPP) (SEQ ID NO: 28), #1009 (RRRpSLPAGDALYLSFNPP) (SEQ ID NO: 29), #1010 (RRRSLPAGDALpYLSFNPP ) (SEQ ID NO: 30) and #934 (RRRSLPAGDALYLSFNPP) (SEQ ID NO: 3) used for in vitro kinase assays. In vitro kinase reactions were run as described previously 31.

[2] = target: T2, GEF-H1S (Homo sapiens, UniProt Q92974, INS962GETLAETWTR); test: Pull-down of GEF-H1 with PAK4 domains and biotinylated PAK4 peptides; assay type: binding; conditions: biotinylated PAK4 peptides linked to streptavidin beads
T2 sequence (Q92974 with tags, fused parts or gaps): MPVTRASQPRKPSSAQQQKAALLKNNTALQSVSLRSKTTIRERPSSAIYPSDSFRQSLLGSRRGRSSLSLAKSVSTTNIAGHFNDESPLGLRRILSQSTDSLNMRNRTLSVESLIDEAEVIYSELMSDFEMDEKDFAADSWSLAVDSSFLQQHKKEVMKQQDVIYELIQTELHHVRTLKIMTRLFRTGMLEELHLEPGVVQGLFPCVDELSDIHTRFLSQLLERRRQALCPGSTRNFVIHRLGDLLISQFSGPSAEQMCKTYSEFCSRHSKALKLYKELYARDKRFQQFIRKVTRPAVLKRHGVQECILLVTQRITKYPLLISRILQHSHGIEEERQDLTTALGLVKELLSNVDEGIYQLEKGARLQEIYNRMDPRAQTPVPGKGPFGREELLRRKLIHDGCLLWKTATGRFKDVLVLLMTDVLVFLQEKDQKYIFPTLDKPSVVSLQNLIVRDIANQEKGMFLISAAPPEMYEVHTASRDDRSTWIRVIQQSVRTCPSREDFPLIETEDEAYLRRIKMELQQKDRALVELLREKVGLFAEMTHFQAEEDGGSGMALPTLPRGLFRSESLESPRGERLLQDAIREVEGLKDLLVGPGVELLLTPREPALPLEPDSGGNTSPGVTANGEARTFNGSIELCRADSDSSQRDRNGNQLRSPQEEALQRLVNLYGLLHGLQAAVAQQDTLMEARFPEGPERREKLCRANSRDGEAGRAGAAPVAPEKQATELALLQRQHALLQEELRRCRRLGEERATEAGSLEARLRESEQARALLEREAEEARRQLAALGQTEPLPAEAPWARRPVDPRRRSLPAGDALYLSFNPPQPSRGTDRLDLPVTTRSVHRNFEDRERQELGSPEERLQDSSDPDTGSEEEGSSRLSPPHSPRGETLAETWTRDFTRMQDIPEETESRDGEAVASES
Experimental: FIG. 1: (SEQ ID NOs 32-34 respectively in order of appearance) Direct binding of GEF-H1 to PAK4. Lysates were prepared from 293T cells over expressing (a) myc tagged PAK4 alleles or subdomains and incubated with GST, GST-GEF-H1 (787-921) and GST-Maguin-like bound to Glutathione beads (1,2,3,4 bead designation) or (b) GFP-GEF-H1 and incubated with PAK4 biotinylated peptides (291-355) and (276-324) linked to streptavidin beads. An equivalent amount of beads and excess lysates (500 ug) were used. Eluates of beads and total lysates were analysed by SDS-PAGE and immunoblotted with myc or GEF-H1 antiserum; (c) represents a PAK4 gene schematic outlining the regions of PAK4 used to identify the GEF-H1 interaction domain (GID). d, alignment of the GID defined by the minimal binding region of PAK4 with PAK5 and PAK6.
To confirm the in vitro interaction of GEF-H1S with PAK4, bacterially expressed GST-fusion proteins were generated with the identical sequences isolated by phage display, encoding either amino acids 763-921 of GEF-H1S or amino acids 385-555 from the Maguin-2-like protein. These fusion proteins were bound to glutathione beads and utilized in binding assays with 293T lysates expressing exogenous PAK4.
Biotinylated peptides derived from the N-terminal region of PAK4 sequence were used to further map the GEF-H1 binding site. […]

T1 sequence (O96013 291-591): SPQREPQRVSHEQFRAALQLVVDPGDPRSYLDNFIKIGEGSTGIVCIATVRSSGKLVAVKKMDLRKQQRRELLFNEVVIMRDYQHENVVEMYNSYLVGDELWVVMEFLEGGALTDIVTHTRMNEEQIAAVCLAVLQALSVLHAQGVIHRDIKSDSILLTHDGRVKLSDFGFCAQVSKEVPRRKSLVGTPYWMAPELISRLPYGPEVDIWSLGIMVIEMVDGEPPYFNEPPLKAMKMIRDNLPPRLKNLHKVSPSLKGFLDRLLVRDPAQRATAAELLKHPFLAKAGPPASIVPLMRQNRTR

Row | Sequence | phosphorylation by PAK4 in vitro [1] | interaction with GEF-H1S [2]
1 | RQSLLGSRRGRSSLSLAK [GEF-H1 residues 55-72] | phosphorylated | 
2 | CTPAAPAVPAVPGPPGPRSPQREPQRVSHEQFRAALQLVVDPGDPRSYLDNF (biotin) [amino acids 276-324] |  | strong interaction
3 | PRRRSLPAGDALYLSFNPP | phosphorylated | 
4 | RRRSLPAGDALYLSFNPP [amino acids 807-824, GEF-H1S peptide surrounding Ser 810] | high affinity substrate | 
